# Source: the DeepSol protein solubility set
# Assay: soluble on expression in E. coli; label from the status in PepcDB or PDB records
row,Sequence,soluble on expression in E. coli
1,MGEVRVVGIRVEQPQNQPVLLLREANGDRYLPIWIGQSEAAAIALEQQGVEPPRPLTHDLIRDLIAALGHSLKEVRIVDLQEGTFYADLIFDRNIKVSARPSDSVAIALRVGVPIYVEEAVLAQAGLLIPDESDEEATTAVREDEVEKFKEFLDSVSPDDFKAT,soluble
2,SLNVNFFVTCIGDALKSRMARDSVLLLEKLGCRVNFPEKQGCCGQPAINSGYIKEAIPGMKNLIAALEDNDDPIISPAGSCTYAVKSYPTYLADEPEWASRAEKVAARMQDLTSFIVNTLGVVDVGASLQGRAVYHPSCSLARKLGVKDEPLTLLKNVRGLELLTFAEQDTCCGFGGTFSVKMAEISGEMVKEKVAHLMEVRPEYLIGADVSCLLNISGRLQREGQKVKVMHIAEVLMSR,soluble
3,MGSDKIHHHHHHMWEVRYLNAELLDLKLWGEGCRLYQIRQMGDDEICLIQTDDTPQESLCERWQVVYAERGAVQQLLFEFTDEAEACEFMYREIKRIKHPHLVGLFPTDAEAEQFCQVLTQLEIQFSHDPQGRVRVYDQEIFTVERHFGCQLPLRKWLSVPERIHVTLARLRKFDPYNCYAQITTNPPIGSEAKLSELEAEHRIKLPEVYRTFLLEVCNGGNWERLGHYWSAEEVMANNSAQLWNQPLPEFLAKLKAAKSGDWLTNPGNRQYPGLLRIVDWDNPVRDLFLTQEGYEVEIQGDWIRFCEFSPEQWLKDFLDDIQYGLFPIEGLLAFLRSGELIRDYPYFHTVNFARLLAETIGLNIDPELTNEQVKMSDEIDYKINQWRIENMGKMRYNFGFNAEQAEVRRQRILERLEYLYQLYS,not soluble
4,MGSDKIHHHHHHSLQAQSTVSHNLANVDTVGFKAALANTEAFQIRGKGYPSRIDALHVDQGFDRSQGHQKVTGNPLDVSLQQDRWLAVQSPDGSEAYTRNGELALTANGQLVTANGHAVLDEGGNPMTIPPHQAMEIGSDGSISIIPQGEGPQTMAIVGKMKVVDAPADRLMRRPDGLMRNTSTDPAQAFAVATGKTVNSGMLEGSNVDAAGALVEMIQLQRQFEMQVKIIKNGDDNAQSANSLLRVSG,not soluble
5,MGSDKIHHHHHHADDDTPVVTLGTSLTDSQRNGTLKTLTAPLNGGNYQTITVTGSDLVKYLNPSGDNFTTSSGVWSSAMIQKTSSGSGINVKILDYNGKNNITTITANQYKNAALTAGITDANIYVTSAVPIDGSGALAGVYAAYAKNGNALNQKQVNAAQDEMNTLSGITQDNKNKEGYSDAQLNNAVAGAKSEMAKQGQNISDSQIRDIVNNQININHLGNTINNNQKNQIVNLLIEIRDSGALKNGSFKSQASKLSSQIQNGAKNIFNKFNTQENRSWLQQLWDNVVNFFSHIFG,not soluble
6,MGSDKIHHHHHHNDDDDKYYYPTNFENLSLPNDTIIAKGEDLTLKPTLNLINPKIYSWKIDGKEVSNEVNYTFSTSVGGKHEIIFEAQDSKGNTDKAQITVDVFAYYGGFYVINEGWAGHDPASVNYYKDGKWNFNIVESLGQTGTVGVIQDSYMYIVAKDAPYLTQIELANFNITKQLSTEIEEQLDYGQANSFCTINETTGILTASRGAYKINLNPLSIGNMLPQLNSESANGNGCKDILKSGDYVFVNNMDTIKIYKSSDLSFVKKLTALMKTGFAQTKDGNIWAANGQSLIKIDPKTLDETTVELPDNINVFYNQWAYTPTGLCASTTENALYIVNTTVVPGAYGDSYYGKNIYKYNTESKIAQEFFKAPSKIQSIYGAGIQVNPQNGDVYLIYTEDGYGTHYLNTNIYVADGQSGTQKQIIDYTGKYWFPSSIVFK,not soluble
7,MAHHHHHHMKNFFILHLRNNYSIFLNKPLQVFTLNVKLNSHVKVNYKHELLTYEFRKITYVKKKKKKSYHNCDGRYITTLNKTININEKYSKLKNDGLLNSTPDNHIKDNIIKEDLLYRKNNEKENEEVIKSNIDENKNVHMNDQNEQNKHCYNKLLIESCCHIDKDVKKSLLEIFQYKEFTDVQRIVYDNIIKEKKQNDLLIQAKTGTGKTIAYLLLSINDIIKNKILSVHTLIIVPTRELANQIYNECKLLLTYKHNINVLTLTGGIKRRDDQLNIRRIKPDIIICTVGRLLDHFESTYLFNTLFENLKMLIIDEADQLLSTGYENDIHRLLTYLPSNRRNILLSATLGYNLDEIRKKMCKSDYIYLNCVKDISKHTSDQLIQYVLFHKAIDTTIILYNLLIEHMRLNQFTYKIIVFFPTARATSFYAQFFINQLKISVYEIHRKKEMAHRQITANRFSMESVGILFTSDISSRGLNYPDITLIIQVNTPISREQYIHRVGRTARSNKKGMAIILLNEADELFYQEIKDLNIQKLNAQNYTLKNTNLSNYLSTWMSNTQLLYLAYAYYSSILRFYKTKYTHLKINDDEIIDAVNNMLLSTGLVEQPYISRNLATTLNMQNNVKLKIRKDLDDILLL,not soluble
8,MSTSCFPDVPLELTTRHPRPLQACPERHSQSTHDSLGIWVKRREEKPMERMSKDYDIVQIPRDVGYSDLPRKMEVGKPFEINGSVYVCEKRGGEIMKICSEDSGRTGVPVLNKGFYVVRRM,not soluble
9,MGSDKIHHHHHHMFEWVEKISFSEASPLTAQAQDNKFGFHRKRPEVMAHSHWHGHIEINYLFDCSADYLINGQEISVPEGRMIIFWASIPHQMTACHGDGEIVNIYIPLQAFLTWMLPGEFVSQLLHGEVMVSDSLYVCDRQLTQIWEADIASQEPLLASQVINEIRNRIRRMAIEHYSTFNLAHRSGHGVDKPVFGGLNHIQTMLRYIADHYDQKITIENVAMSTGLHKNYAMKLFNRVMKVSIKQYINQLRLQHAQALLIDTENPVLNIALEAGFGSVSRFYDIFQREFNMSPLEFRRRVG,not soluble
10,MPRKAREYPEEGEFVVATVKRIHNYGAFLELDEYPGKEAFMHISEVASTWVRNIRDYLKEGQKVVAKVIRVDPRKGHIDLSLRRVTQQQRKAKLQEFKRAQKAENLLRLAAEKLGKDFEAAWREVWVPLEEEWGEVYAAFEDAAKDGIEVLKGHVPDEWLPVLKEIVENYVEVPTVTIDAEFEITVPKPNGVEIIKEALIRARDRANKEKDIEVKFTYQGAPRYRIDITAPDYYKAEEVLEDIAEEILRVIKQAGGEATLLRKEKRIRKVKKRKK,soluble
11,MQRGKVKWFNNEKGYGFIEVEGGSDVFVHFTAIQGEGFKTLEEGQEVSFEIVQGNRGPQAANVTKEA,soluble
12,MTGLLDGKRILVSGIITDSSIAFHIARVAQEQGAQLVLTGFDRLRLIQRITDRLPAKAPLLELDVQNEEHLASLAGRVTEAIGAGNKLDGVVHSIGFMPQTGMGINPFFDAPYADVSKGIHISAYSYASMAKALLPIMNPGGSIVGMDFDPSRAMPAYNWMTVAKSALESVNRFVAREAGKYGVRSNLVAAGPIRTLAMSAIVGGALGEEAGAQIQLLEEGWDQRAPIGWNMKDATPVAKTVCALLSDWLPATTGDIIYADGGAHTQLL,soluble
13,MYMRAGDGRVHGIYSSTDVANLILKTTGTALMDKKKLHKLLYYMQGWTLAALGRPAFANDLQAWVDGPVSVGMRRDTHYATCFEVANRPLSNPLAPQDRDLLALMYLIAPFYAQQQTQALVDSTHAEAPWLDARGGLPPPMPIPARRSLTTHCTATFHSTPASWV,not soluble
14,MHKVLVPFDGSEHAMRALGYVIELSGDLNKPLEVHVLNVQASPIDYSLYLAPDMIDGVKAGLKNEGKRVLDDAIALLAAAGVPFQAHVDLGNVAEQVEAEVQRLGCDAVVMGTRGLGNFGGLLLGSVATRVIHEVSVPVTLIK,not soluble
15,MKVLILTVGTTREPLEVALAEHAPQGVVFLASQASHPVAAELVRDYGGSFRHHTLLLEDAESLMEAYQKALLALRKALEWEATAIVADLTGGTKPMAAGLVLALTGRGVVFSYVGGEARDPGTGRVLAGKERLRLLEDPTARLGLKEWAGFTRAWNALNLGMALAELESLLRRDLSPSEARFYGAMKGVVEGLMEWDRFRHREAWERLSVHLPLALAVAEAWGHGAKVRVLKGLEALLPHLKGIVEAGPKPTFLLLQDLLANAERRAALGRFDDALARLYRALELAVEADVHERLGFSLKDPRTWPEGFPEGLRERILKPRGLMDLLDAAFDLDLAFGEQGTLAQRLYGEKNRLQALLQRRHESILAHGTRPVGEEDYTALRDFLMRLDERLRPLPPWPRF,soluble
16,MGSDKIHHHHHHACEEEGLGNEETPFAPYVLSLGINSNGTTTYYVVTAPELMSGTINAVAKGIEQNGYRDYEQAGQTVFSIGGLGLTSATGIVRDANGYLTERGDFVFNSSLNAFTQMDGQNMIGLELPANKESGDQMTLYTVNISDVSITSQVKAPVFPLNQLEWPSITGMCYSEGNVYVTYFPMNPSTFETLYTDTTFVAVYSYPDMQFKTLMKDTRTGPAGSWNAFNGIFKVESGDMYIMSNSAIANGFSQSTKNAAFLRIPKGETHFDDYYFDFETVSGGLKPAHIKYIGNGLVFAEVSTISPQTSADRWGDKSLKCCIIDLNNKTVRDIKEIPVHNGDGGRRFAALVDGGYVYRPVTASEGTYIYQVDPQAATAVRGAKVSTTFVGGFFRLD,not soluble
17,MSYYHHHHHHDYDIPTTENLYFQGAMDPEFRVINLAYDDNGTGDPVVFIAGRGGAGRTWHPHQVPAFLAAGYRCITFDNRGIGATENAEGFTTQTMVADTAALIETLDIAPARVVGVSMGAFIAQELMVVAPELVSSAVLMATRGRLDRARQFFNKAEAELYDSGVQLPPTYDARARLLENFSRKTLNDDVAVGDWIAMFSMWPIKSTPGLRCQLDCAPQTNRLPAYRNIAAPVLVIGFADDVVTPPYLGREVADALPNGRYLQIPDAGHLGFFERPEAVNTAMLKFFASVKA,soluble
18,MGSDKIHHHHHHMKDNKINILFLSWRDIKCPKSGGAEVFTHEMLKRLDFNKYDITHFSPTFEGAKEKEIIDNVTYIRRGNILSVISEAKKYYKTNKDEIDFVVDQCNTHKFFTPLWVPKKKRIFFIHQLTREIWHINARFPISTLGYLFETPTLRLYKNDYTITVSDSTKKDLIDIGFDRDKVTIFPEGINFKPWDKDSLLKEKDNIFGYIGRFVNYKGIDAAVKAYCILKKDYPNSKLWIIGKKKDDYIEKVLLPILKENNITYGNRGQNRDITFWGFVSEKEKLSLMSKMKALLFPSIREGFGLTVIEAGAVGTPTVVYNSKGLVDAVDKGKAGYLCEENTPENLYYFMKNILENENEYGLKRKNAHDFSLKFNWDSTSKYFDDFINKLNEKSLKK,not soluble
19,MAAATTTASAFKWPWQYDFPPFFTIQKSLNTKDKQLEAWARLVIDYAQHNKIYSLDIAEATTSELFNNQKLNRRLSTDGVNTVLQYLEQKKLIEFTDNGRTRFHIFWRRPDVWANMIYQWAVENAFINTPLTLYEITHGDDTTNESFHNLEREILMKALTCLEEQRRAQLMNIGGDNEGVKFI,soluble
